# Results reported in article PMC3118421.
# Molecular target: human dimeric IgA2 anti-NIP, wild type (not stated | human | mouse)
# Experiment: rosetting assay
binder,measurement,value
streptococcal IgA-binding M protein Arp4 (M4) (natural protein) AEIKKPQADSAWNWPKEYNALLKENEELKVEREKYLSYADDKEKDPQYRALMGENQDLRKREGQYQDKIEELEKERKEKQERQEQLERQYQIEADKHYQEQQKKHQQEQQQLEAEKQKLAKDKQISDASRQGLSRDLEASRAAKKELEAEHQKLKEEKQISDASRQGLSRDLEASREAKKKVEADLAALTAEHQKLKEDKQISDASRQGLSRDLEASREAKKKVEADLAEANSKLQALEKLNKELEEGKKLSEKEKAELQARLEAEAKALKEQLAKQAEELAKLKGNQTPNAKVAPQANRSRSAMTQQKRTLPST,"percent inhibition of dIgA binding to hFcα/μR (rosettes, Arp4 at 100 μg/mL)",50%
